Marks after values point to notes of the source that are not given here.
Key:
[1] = Pharmacokinetics after single subcutaneous administration in mouse; assay type: in vivo, female C57Bl/6 mice; settings: 0.3 mg/kg s.c.; assay FGF21 intact
Method: Plasma concentrations and pharmacokinetic parameters of GLP-1RA/FGF21 Fc fusion proteins were determined after single subcutaneous administration of 0.3 mg/kg in solution to female C57Bl/6 mice or male Cynomolgus monkeys using three different methods. Blood samples were obtained at time points from 30 minutes to 168 hours after dosing.
Plasma samples were analyzed for the intact FGF21 part of the fusion proteins with an ELISA kit (F1231-K01, Eagle Biosciences, USA). The assay utilized the two-site sandwich technique with two selected antibodies that bound to different epitopes of human intact FGF21. […] For the detection of the immunocomplex, the well was then incubated with a substrate solution in a timed reaction and then measured in a spectrophotometric microplate reader. […]
The concentration of the full-length GLP-1RA/FGF21 Fc fusion proteins in plasma were determined utilizing an ELISA method. […] Following washing 3 times with 300 µL PBS-T 150 µL read buffer was added to the wells.
Plasma samples were analyzed for the intact GLP-1 part of the fusion proteins with a GLP-1 ELISA method. […] Following washing 3 times with 300 µL PBS-T, 150 µL read buffer was added to the wells.
The pharmacokinetic parameters were calculated by the program WinNonlin 6.4 using a non-compartmental model and linear trapezoidal interpolation calculation. […]

[2] = Thermal shift assay (DSF, Sypro Orange); assay type: physicochemical; settings: Data generated via DSF
Text: In addition, for some proteins, a thermal shift assay was applied to analyze thermostability in imitation of differential scanning fluorimetry (DSF or ThermoFluor™) assays (Ahmad S. et al. (2012) Protein Science 21: 433-446; Pantoliano et al. (2001) J. Biomol. Screen 6: 429-440; Niesen et al. (2007) Nat. Protoc. 2: 2212-21). This assay is based on the observation that hydrophobic fluorescent dyes, such as Sypro™ Orange (Life Technologies, cat. No. S6651), increase their fluorescence when they bind to hydrophobic patches on a protein.
Proteins were tested by mixing a solution of each protein in PBS (Gibco) with a 160x solution of Sypro™ Orange (diluted in water from a 5000X DMSO stock as provided by the supplier). The sample volume was adjusted to 20 µL with PBS. Typical conditions contained 0.8 mg/mL protein and 8x Sypro™ Orange in the final mixture, but protein concentrations could be varied between 0.4 mg/mL and 1.2 mg/mL. Samples were dispensed in 96-well PCR plates (BioRad Semi-Skirt 96 white) and shortly centrifuged to remove air bubbles. […] For excitation and quantification of fluorescence, filters for wavelengths of 485 nm and 575 nm were chosen. […] In curves of fluorescence intensity against temperature, the inflection point was chosen as the measure for the melting temperature (Tm).

B1: 252 (protein)
chain: GHPIPDSSPLLQFGGQVRQRYLYTDDAQQTEAHLEIREDGTVGGAADQSPESLLQLKALKPGVIQILGVKTSRFLCQRPDGALYGSLHFDPEACSFRELLLEDGYNVYQSEAHGLPLHLPGNKSPHRDPAPRGPARFLPLPGLPPAPPEPPGILAPQPPDVGSSDPLSMVGPSQGRSPSYAS
modifications: G-FGF21
Question: What does the source list for B1?
Answer: t½ mouse [1]: 42 min; Tm [2]: 43.1 * °C
